Experimental data reported in publication doi:10.1101/2023.04.28.538690, “Post-translational modification of SPATULA by SECRET AGENT and SPINDLY promotes organ symmetry transition at the gynoecium apex” (bioRxiv, 2023).

Tests used:
Experiment in all cases: FRET or BRET; FRET-FLIM in nuclei of co-infiltrated N. benthamiana leaves (with P19), 48 h; SPT-EGFP as donor, RFP fusions as acceptors; with or without co-expressed SEC-3xHA or SPY-3xHA; at least 60 nuclei per condition
[1] = target: T1, HECATE 1 (HEC1) fused to RFP (p35S:HEC1-RFP) (Arabidopsis thaliana, UniProt Q9FHA7 1-241); details: partners not purified
T1 construct: HECATE 1 (HEC1), bHLH transcription factor of Arabidopsis thaliana; source: N. benthamiana leaves, Agrobacterium-infiltrated, in nuclei of the leaf cells
T1 sequence (looked up): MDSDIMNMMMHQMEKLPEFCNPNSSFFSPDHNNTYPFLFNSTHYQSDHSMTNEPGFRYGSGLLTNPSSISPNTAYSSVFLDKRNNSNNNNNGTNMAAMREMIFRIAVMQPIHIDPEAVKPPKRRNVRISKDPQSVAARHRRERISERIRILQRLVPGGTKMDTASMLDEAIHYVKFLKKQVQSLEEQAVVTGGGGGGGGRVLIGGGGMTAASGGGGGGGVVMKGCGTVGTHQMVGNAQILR

[2] = target: the molecule itself
[3] = target: T2, INDEHISCENT (IND) fused to RFP (p35S:IND-RFP) (Arabidopsis thaliana, UniProt O81313 1-198); details: partners not purified
T2 construct: INDEHISCENT (IND), bHLH transcription factor of Arabidopsis thaliana; source: N. benthamiana leaves, Agrobacterium-infiltrated, in nuclei of the leaf cells
T2 sequence (looked up): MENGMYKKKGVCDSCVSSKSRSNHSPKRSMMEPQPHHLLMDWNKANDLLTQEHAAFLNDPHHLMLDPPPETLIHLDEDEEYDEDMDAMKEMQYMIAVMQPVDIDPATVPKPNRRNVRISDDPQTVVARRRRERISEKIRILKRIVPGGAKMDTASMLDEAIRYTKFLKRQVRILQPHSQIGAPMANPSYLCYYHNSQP

FRET efficiency [1]: 7.4%
FRET efficiency [3]: 9.6%
B1: SPATULA (SPT) fused to EGFP (p35S:SPT-GFP); second copy in the homodimer test fused to RFP (p35S:SPT-RFP) (natural protein, Arabidopsis thaliana, UniProt Q9FUA4 1-373, looked up)
chain: MISQREEREEKKQRVMGDKKLISSSSSSSVYDTRINHHLHHPPSSSDEISQFLRHIFDRSSPLPSYYSPATTTTTASLIGVHGSGDPHADNSRSLVSHHPPSDSVLMSKRVGDFSEVLIGGGSGSAAACFGFSGGGNNNNVQGNSSGTRVSSSSVGASGNETDEYDCESEEGGEAVVDEAPSSKSGPSSRSSSKRCRAAEVHNLSEKRRRSRINEKMKALQSLIPNSNKTDKASMLDEAIEYLKQLQLQVQMLTMRNGINLHPLCLPGTTLHPLQLSQIRPPEATNDPLLNHTNQFASTSNAPEMINTVASSYALEPSIRSHFGPFPLLTSPVEMSREGGLTHPRLNIGHSNANITGEQALFDGQPDLKDRIT
notes: SPATULA (SPT) of Arabidopsis thaliana; In the SPT;SPT test one copy carried EGFP (FRET donor) and the other RFP (acceptor) in place of EGFP; both copies are written as this one molecule; also called SPT-EGFP; source: N. benthamiana leaves, Agrobacterium-infiltrated, in nuclei of the leaf cells
FRET efficiency [2]: 5.7%
